# Laboratory results: patent publication US20230203117A1 (published 2023)
# Experiments:
# R5A11 (+Rα) = R5A11 (+Rα) (UniProt Q13651 22-235); test: SPR (Biacore); pre-bound to IL-10Rα
# B11 (+Rα) = B11 (+Rα) (UniProt Q13651 22-235); test: SPR (Biacore); pre-bound to IL-10Rα
# G3 (+Rα) = test: SPR (Biacore); pre-bound to IL-10Rα
# A11 (+Rα) = A11 (+Rα) (UniProt Q13651 22-235); test: SPR (Biacore); pre-bound to IL-10Rα
# R5A11 = test: SPR (Biacore); monomer, without IL-10Rα
# B11 = test: SPR (Biacore); monomer, without IL-10Rα
# A11 = test: SPR (Biacore); monomer, without IL-10Rα
# G3 [1] = test: SPR (Biacore); monomer, without IL-10Rα
# G3 [2] = test: SPR (Biacore); without IL-10Rα
binder,measurement,setting,value
"IL-10Rβ (receptor, biotinylated with BirA ligase on the biotin acceptor peptide) MVPPPENVRMNSVNFKNILQWESPAFAKGNLTFTAQYLSYRIFQDKCMNTTLTECDFSSLSKYGDHTLRVRAEFADEHSDWVNITFCPVDDTIIGPPGMQVEVLADSLHMRFLAPKIENEYETWTMKNVYNSWTYNVQYWKNGTDEKFQITPQYDFEVLRNLEPWTTYCVQVRGFLPDRNKAGEWSEPVCEQTTHDETVPSLNDIFEAQKIEWHWHHHHHH",Kd,R5A11 (+Rα),100 nM
same,Kd,B11 (+Rα),65 nM
same,Kd,G3 (+Rα),8 nM
same,Kd,A11 (+Rα),23 nM
same,Kd,R5A11,8900 nM
same,Kd,B11,9400 nM
same,Kd,A11,2400 nM
same,Kd,G3 [1],2400 nM
same,Kd,G3 [2],2400 nM
